Molecular target: gastrin-releasing peptide receptor (GRPR) with a C-terminal NLuc tag (human) (UniProt P30550)
Assay: FRET or BRET

UniProt P30550, sequence (P30550 whole entry): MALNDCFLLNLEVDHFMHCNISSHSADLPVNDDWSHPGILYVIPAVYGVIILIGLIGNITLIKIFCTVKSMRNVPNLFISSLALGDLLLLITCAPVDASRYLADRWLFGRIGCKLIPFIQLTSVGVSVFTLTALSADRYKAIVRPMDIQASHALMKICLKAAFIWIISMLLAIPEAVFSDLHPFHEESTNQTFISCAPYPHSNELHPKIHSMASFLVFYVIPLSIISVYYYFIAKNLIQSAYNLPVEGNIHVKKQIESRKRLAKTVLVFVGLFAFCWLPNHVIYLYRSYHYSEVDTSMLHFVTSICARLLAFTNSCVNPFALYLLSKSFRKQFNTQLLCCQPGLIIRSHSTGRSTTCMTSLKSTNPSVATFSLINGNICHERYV

efficacy of miniGq recruitment with AG-2-BBN-1 (% of AMBA): 57%
Substance: venus-mGq (engineered mini Gαq probe)

— article PMC8640787
